Earlier results as cited in US20220133873A1, “CANCER THERAPY” (Madison Vaccines Inc., priority 2019, published 2022).

Tests used:
[1] = test system: advanced (metastatic) melanoma; settings: 173 patients, 2 mg/kg or 10 mg/kg at 3-week intervals
[2] = intravenously or subcutaneously, doses 50 to 500 μg/m2/day

| Substance | drug-related grade 3 or 4 adverse event reported in more than one patient [1] | overall response rate ([1]; irrespective of dose) [%] | tolerability [2] |
| --- | --- | --- | --- |
| pembrolizumab | Grade 3 fatigue | 26 | – |
| GM-CSF: Granulocyte-macrophage colony-stimulating factor, vaccine adjuvant | – | – | generally well tolerated |
